B1: SKAI-DS7 scFv (scFv, V domains shown)
VH: EVQLLESGGGLVQTGGSLRLSCAASGFTFSDYAMSWVRQAPGKGLEWVSGIYHSGGNTYYADSVKGRFTISRDNSKNTLYLQMNSLRAEDTAVYYCARDAGPFDYWGQGTLVAV
VL: QSVLTQPPSASGTPGQRVTISCSGSSSNIGSNAVSWYQQLPGTAPKLLIYDNNHRPSGVPDRFSGSKSGTSASLAISGLRSEDEADYYCGSWDDSLNAYVFGGGTKLTVL
B2: SKAI-DS1 scFv (scFv, V domains shown)
VH: EVQLLESGGGLVQTGGSLRLSCAASGFTFSDYAMSWVRQAPGKGLEWVSWIYSNDGNKYYADSVKGRFTISRDNSKNTLYLQMNSLRAEDTAVYYCARFPVPSWRNTWSSYDAMDVWGQGTLVTV
VL: QSVLTQPPSASGTPGRRVTISCTGSSSNIGSNYVSWYQQLPGTAPKLLIYSDSNRPSGVPDRFSGSKSGTSASLAISGLRSEDEADYYCGTWDASLSGYVFGGGTKLTVL
B3: SKAI-DS64 (antibody, V domains shown)
VH: B1 VH with T14P, A33S, G55D, N57S, T58K, D99F, A100D, G101P, P102V, A113T
VL: B1 VL
notes: also called SKAI-DS64 human IgG antibody
B4: SKAI-DS1 (antibody, V domains shown)
VH: B2 VH
VL: B2 VL
notes: also called SKAI-DS1 human IgG antibody
B5: SKAI-DS3 (antibody, V domains shown)
VH: EVQLLESGGGLVQPGGSLRLSCAASGFTFSDYSMSWVRQAPGKGLEWVSAISSDSSSTYYADSVKGRFTISRDNSENTLYLQMNSLRAEDTAVYYCAKAILRCIPLGCYYADAMDVWGQGTLVTV
VL: B2 VL with R16Q, Y33D, S35T, S51A, N54K, T91A, A94Y, G98A
notes: also called SKAI-DS3 human IgG antibody
B6: SKAI-DS15 (antibody, V domains shown)
VH: EVQLLESGGGLVQPGGSLRLSCAASGFTFSDYDMSWVRQAPGKGLEWVSMIYSGSSSKYYADSVKGRFTISRDNSKNTLYLQMNSLRAEDTAVYYCARVTGTCHSGSCYYSDAMDVWGQGTLVTV
VL: B2 VL with R16Q, T23S, Y33D, S35N, S51D, T91A, A94D
notes: also called SKAI-DS15 human IgG antibody
B7: SKAI-DS66 (antibody, V domains shown)
VH: B1 VH with T14P, G50A, H53P, S54G, N57S, D99N, A100L, G101F, P102G, A113T
VL: B1 VL with S23T, S35Y, N52D, N53S, H54N, N97S
notes: also called SKAI-DS66 human IgG antibody
B8: SKAI-DS16 (antibody, V domains shown)
VH: EVQLLESGGGLVQPGGSLRLSCAASGFTFSDYSMSWVRQAPGKGLEWVSWIYPDNGNTYYADSVKGRFTISRDNSKNTLYLQMNSLRAEDTAVYYCAKPKTSFDYWGQGTLVTV
VL: B2 VL with R16Q, T23S, S35Y, S51D, D61G, A94Y, S97N
notes: also called SKAI-DS16 human IgG antibody

Substitutions are numbered along the chain they refer to.

The first experiment has as its target T1, SARS-CoV-2-B.1.617.2 (Delta variant) RBD (SARS-CoV-2 B.1.617.2 (Delta variant), UniProt P0DTC2 319-541).
T1 construct: domain: RBD; also called Delta RBD; Delta antigen
The experiment in a line: ELISA of scFv from individual colonies on RBD antigens. For orientation: ELISA stands for enzyme-linked immunosorbent assay.
For the molecule B1, the binding result was “binds”.

In the case of B2, the binding result is recorded as “binds”.

For the next experiment, the target named is T1, SARS-CoV-2-B.1.617.2 (Delta variant) RBD. Nature of the experiment: ELISA on RBD antigen, human IgG at 1 µg/mL, O.D. 450 nm.
As for B3, the binding result was “binds”.

Consider B4, for which the binding result is recorded as “binds”.

Take B5: the binding result is reported as “no binding (tested: 1 µg/mL)”.

On to B6, for which the binding result is “no binding (tested: 1 µg/mL)”.

On to B7, for which the binding result is reported as “binds”.

As for B8, the binding result was “no binding (tested: 1 µg/mL)”.

Another experiment deals with T2, Omicron (B.1.1.529) RBD antigen (Genscript) (SARS-CoV2 Omicron variant (B.1.1.529), UniProt P0DTC2 319-541).
T2 construct: domain: RBD; also called Omicron RBD; Omicron variant RBD
The experiment is described as above.
B3: the binding result is given as “no binding (tested: 1 µg/mL)”.

In the case of B4, the binding result is on record as “no binding (tested: 1 µg/mL)”.

As to B5, the binding result is reported as “no binding (tested: 1 µg/mL)”.

In the case of B6, the binding result is recorded as “no binding (tested: 1 µg/mL)”.

Consider B7, for which the binding result is on record as “no binding (tested: 1 µg/mL)”.

Take B8: the binding result is reported as “no binding (tested: 1 µg/mL)”.

These data come from patent US20250002562A1 (Scripps Research, published 2025).
